Data on 2 molecules can be found in paper PMC12350541, “Continuous Spectrophotometric Assay for Defluorinase and Dechlorinase Activities With α‐Halocarboxylic Acids” (Microbial Biotechnology, 2025).

Series [1] deals with T1, rabbit heart lactate dehydrogenase (Oryctolagus cuniculus, UniProt A0A5F9DPL1).
T1 construct: gene LDHB; commercial native enzyme from heart (MilliporeSigma), tetramer
The experiment in a line: NADH oxidation, A340. In kind it is biochemical. As to conditions: 0.300 mM NADH, 0.1 M Tris pH 9.0.

Another series relates to O=C(O)C(F)Cl. The series can be described thus: LDH-coupled NADH oxidation, A340, 96-well plate, Michaelis-Menten fit. As to conditions: 0.1 M Tris pH 8.0, room temperature not stated for plate, 40 ug DEF2, 50 ug LDH, 400 uM NADH, racemic substrate 1-30 mM. It is filed as biochemical, Dechloromonas aromatica (nom. nud.).

T1 sequence (A0A5F9DPL1 1-334): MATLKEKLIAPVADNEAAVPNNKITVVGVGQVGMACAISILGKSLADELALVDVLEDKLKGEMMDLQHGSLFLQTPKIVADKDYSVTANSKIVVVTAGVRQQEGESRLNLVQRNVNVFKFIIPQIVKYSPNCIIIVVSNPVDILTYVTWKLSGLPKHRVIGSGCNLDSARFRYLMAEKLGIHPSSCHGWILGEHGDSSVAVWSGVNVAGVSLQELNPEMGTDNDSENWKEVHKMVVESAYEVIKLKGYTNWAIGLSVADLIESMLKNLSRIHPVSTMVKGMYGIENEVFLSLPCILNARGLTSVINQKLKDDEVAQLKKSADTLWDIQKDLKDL

In the case of `O=CC(=O)O` [glyoxylate], the “NADH oxidation, A340” value in series [1] is given as “activity with commercial rabbit heart lactate dehydrogenase with glyoxylate was too slow”.
The Km is the substrate concentration at which the rate is half of its maximum. Usually kcat stands for the maximal rate divided by the concentration of active sites. Consider DEF2 (Dechloromonas aromatica RCB), for which, in the series with O=C(O)C(F)Cl, the Km worked out at 6.0 mM and the kcat came out at 0.00533 s⁻¹.
